Reference: patent US20150225755A1, “Ergothioneine Production Through Metabolic Engineering” (priority 2012, published 2015)

What was measured:
[1] = tested on: C[N+](C)(C)[C@@H](Cc1cnc[nH]1)C(=O)[O-]; experiment: OvoA activity, oxygen consumption assay / kinetic analysis; assay type: biochemical, Erwinia tasmaniensis; conditions: other: air-saturated HEPES buffer; coupling with Cys
Source text: (§1) Two different assays were developed for both EgtB and OvoA catalysis (FIG. 3). Both EgtB and OvoA are proposed to be oxidases,^[9-10] which catalyze the oxidative coupling between His and Cys to form the C—S bond. At the same time, sulfur is oxidized to sulfoxide. The overall process is a four-electron oxidation process (FIG. 1) similar to the case of the isopenicillin N synthase.^[12] In the initial report by Seebeck, they monitored the reaction by monitoring the absorption changes at 260 nm because the oxidative products (3 or 6, FIG. 1) have absorptions in this region. However, it is not very sensitive. Oxygen is needed because there was no detectable product formation under anaerobic conditions. Based on this feature, we developed the EgtB and OvoA activity assays by monitoring the oxygen consumption rate (FIG. 3-I-B) using the NeoFoxy oxygen electrode (FIG. 3-I-A). This assay (FIG. 3-I-B) was used as the routine assay to optimize the conditions for EgtB and OvoA activities.
(§2) For oxygenase or oxidase-catalyzed reaction, potential problems include the presence of side-reactions, non-productive oxygen consumption, or oxidative inactivation of enzyme itself. Multiple activity assays will provide useful information to analyze those situations. To achieve this goal, besides the oxygen consumption assay, we have also developed a ^1H-NMR assay to directly monitor the product formation (FIG. 3-II). In ^1H-NMR, the chemical shifts of the imidazole H-atoms in both the products (3 and 6, FIG. 3-II) and the substrates (1 and 2) are well-separated from the rest of the reaction mixture. Thus, the reaction mixture can be analyzed routinely without the need of a product separation. In FIG. 3-II-B (OvoA catalysis), the signals with chemical shifts at 6.93 ppm and 7.70 ppm are assigned to the two histidine imidazole H-atoms. The signal at 7.83 ppm is from the imidazole H-atom of the oxidative coupling product 6. While for the oxidative product 3 (EgtB catalysis), its imidazole H-atom has a chemical shift of 7.10 ppm (FIG. 3-II-B). […]

[2] = tested on: N[C@@H](CS)C(=O)O; experiment: as above; assay type: biochemical, Erwinia tasmaniensis; conditions: other: air-saturated HEPES buffer; coupling with hercynine (2)
Source text: as §1, §2

[3] = biological target: EgtB (Mycolicibacterium smegmatis, UniProt A0R5N0); experiment: EgtB activity using hercynine (2) and Cys as substrates; assay type: biochemical, Mycobacterium smegmatis
Source text: as §1
According to the initial reports from Seebeck,^[9-10] EgtB and OvoA distinguish themselves from each other by both their substrate preferences and their product C—S bond regio-selectivity (FIG. 1). The C—S bond in ergothioneine (5) is located at the histidine ε-carbon, while for ovothiol, the C—S bond is located at the histidine δ-carbon (8). Their substrate preferences are also different. […]

[4] = biological target: OvoA (Erwinia tasmaniensis, UniProt B2VFD8); experiment: OvoA activity, oxygen consumption assay / kinetic analysis; assay type: biochemical; conditions: air-saturated HEPES buffer
Source text: as §1, §2

[5] = biological target: T1, NcEgt-1 (Neurospora crassa, UniProt Q7RX33); experiment: NcEgt-1 catalysed oxidative coupling of hercynine (2) and Cys to form 4; assay type: biochemical
T1 sequence (Q7RX33 whole entry, looked up): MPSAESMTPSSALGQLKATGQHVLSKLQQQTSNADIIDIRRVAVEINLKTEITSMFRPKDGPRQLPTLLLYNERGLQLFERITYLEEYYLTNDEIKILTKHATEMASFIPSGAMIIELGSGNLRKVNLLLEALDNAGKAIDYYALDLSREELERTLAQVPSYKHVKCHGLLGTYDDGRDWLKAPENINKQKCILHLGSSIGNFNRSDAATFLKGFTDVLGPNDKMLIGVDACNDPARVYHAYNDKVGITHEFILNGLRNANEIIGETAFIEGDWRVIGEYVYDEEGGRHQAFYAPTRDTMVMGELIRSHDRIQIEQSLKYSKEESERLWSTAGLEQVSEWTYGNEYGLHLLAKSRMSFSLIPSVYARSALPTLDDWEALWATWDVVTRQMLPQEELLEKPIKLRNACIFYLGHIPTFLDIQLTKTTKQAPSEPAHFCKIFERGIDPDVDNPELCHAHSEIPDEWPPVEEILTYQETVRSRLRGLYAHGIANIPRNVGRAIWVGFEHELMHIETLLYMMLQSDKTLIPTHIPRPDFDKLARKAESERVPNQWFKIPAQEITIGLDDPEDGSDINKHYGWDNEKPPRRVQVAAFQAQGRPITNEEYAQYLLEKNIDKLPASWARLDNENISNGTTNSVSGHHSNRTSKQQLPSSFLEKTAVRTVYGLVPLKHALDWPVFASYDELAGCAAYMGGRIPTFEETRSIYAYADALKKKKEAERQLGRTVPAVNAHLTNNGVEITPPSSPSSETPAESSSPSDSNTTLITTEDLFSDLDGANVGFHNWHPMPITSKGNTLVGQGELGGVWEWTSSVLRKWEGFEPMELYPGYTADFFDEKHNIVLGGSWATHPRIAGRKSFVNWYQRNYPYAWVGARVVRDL
Source text: In the above section, we have successfully solved the EgtE problems, which enable ergothioneine production through metabolic engineering. However, the original ergothioneine biosynthetic pathway (FIG. 1A) is not efficient. To solve this problem, we initiated the search for enzymes that can oxidatively couples hercynine (2) and Cys directly as outlined in FIG. 2. Two of such enzymes (OvoA in FIG. 1B and NcEgt-1 from Neurospora crassa^[13]) have been identified by a combination of bioinformatics analysis and activity analysis using oxygen and ^1H-NMR assays.
Based on this exciting discovery, we have also examined another protein NcEgt-lfrom Neurospora crassa^[13].

Molecule: OvoA (Erwinia tasmaniensis Et1/99)
- Km [1]: 395 ± 30 µM
- Km [2]: 3.19 ± 0.41 mM

Molecule: N[C@@H](CS)C(=O)O [Cys, cysteine]
- recognition as substrate by EgtB [3]: cannot recognize Cys as the substrate

Molecule: C[N+](C)(C)[C@@H](Cc1cnc[nH]1)C(=O)[O-] [hercynine]
- kcat for the oxidative coupling between Cys and hercynine (2) [4]: 270 ± 5 min⁻¹

B1: NcEgt-1: enzyme from Neurospora crassa that catalyzes oxidative coupling of hercynine and cysteine (protein)
chain: MPSAESMTPSSALGQLKATGQHVLSKLQQQTSNADIIDIRRVAVEINLKTEITSMFRPKDGPRQLPTLLLYNERGLQLFERITYLEEYYLTNDEIKILTKHATEMASFIPSGAMIIELGSGNLRKVNLLLEALDNAGKAIDYYALDLSREELERTLAQVPSYKHVKCHGLLGTYDDGRDWLKAPENINKQKCILHLGSSIDKVGITHEFILNGLRNANEIIGETAFIEGDWRVIGEYVYDEEGGRHQAFYAPTRDTMVMGELIRSHDRIQIEQSLKYSKEESERLWSTAGLEQVSEWTYGNEYGLHLLAKSRMSFSLIPSVYARSALPTLDDWEALWATWDVVTRQMLPQEELLEKPIKLRNACIFYLGHIPTFLDIQLTKTTKQAPSEPAHFCKIFERGIDPDVDNPELCHAHSEIPDEWPPVEEILTYQETVRSRLRGLYAHGIANIPRNVGRAIWVGFEHELMHIETLLYMMLQSDKTLIPTHIPRPDFDKLARKAESERVPNQWFKIPAQEITIGLDDPEDGSDINKHYGWDNEKPPRRVQVAAFQAQGRPITNEEYAQYLLEKNIDKLPASWARLDNENISNGTTNSVSGHHSNRTSKQQLPSSFLEKTAVRTVYGLVPLKHALDWPVFASYDELAGCAAYMGGRIPTFEETRSIYAYADALKKKKEAERQLGRTVPAVNAHLTNNGVEITPPSSPSSETPAESSSPSDSNTTLITTEDLFSDLDGANVGFHNWHPMPITSKGNTLVGQGELGGVWEWTSSVLRKWEGFEPMELYPGYTADFFDEKHNIVLGGSWATHPRIAGRKSFVNWYQRNYPYAWVGARVVRDL
modifications: Neurospora crassa OR74A
notes: enzyme from Neurospora crassa that catalyzes oxidative coupling of hercynine and cysteine
- activity of 2→4 conversion compared with OvoA [5]: same order of magnitude as OvoA
